Assay results published in paper PMC3838125, “Crystal Structure of Venezuelan Hemorrhagic Fever Virus Fusion Glycoprotein Reveals a Class 1 Postfusion Architecture with Extensive Glycosylation” (Journal of Virology, 2013).

Biological target: the molecule itself
Test: crystal structure

B1: Guanarito virus (GTOV) fusion glycoprotein GP2, residues 292 to 418 (domain or fragment)
chain: DSEFCDMLRLFDFNKNAIEKLNNQTKTAVNMLTHSINSLISDNLLMRNKLKEILKVPYCNYTRFWYINHTKSGEHSLPRCWLVSNGSYLNESDFRNEWILESDHLIAEMLSKEYQDRQGKTPLTLVD
notes: also called GTOV GP2
stoichiometry N: 3
